Results on 34 molecules are retold here after article PMC5261807 (2017).

First the molecules themselves.
T1: Bdf1 bromodomain 1 (GST-tagged, WT) (Saccharomyces cerevisiae (strain ATCC …, UniProt P35817))
T1 chain: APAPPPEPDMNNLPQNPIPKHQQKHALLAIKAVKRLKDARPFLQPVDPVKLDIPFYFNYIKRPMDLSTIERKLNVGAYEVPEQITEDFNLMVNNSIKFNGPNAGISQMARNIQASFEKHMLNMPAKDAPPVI

T2: Bdf1 bromodomain 2 (GST-tagged, WT) (Saccharomyces cerevisiae (strain ATCC …, UniProt P35817))
T2 chain: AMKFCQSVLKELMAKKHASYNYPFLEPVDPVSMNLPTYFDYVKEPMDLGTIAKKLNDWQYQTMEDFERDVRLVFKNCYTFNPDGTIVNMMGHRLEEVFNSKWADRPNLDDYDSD

B1: H3 1-19 (peptide)
chain: ARTKQTA[Arg(Me2a)][Lys(Me3)][pS][pT]GGKAPRKQ
B2: H3 1-19 (peptide)
chain: ARTKQTARKSTGGKAPRKQ
modifications: A R T K Q T A R Kme1 S T G G Kac A P R K Q
B3: H3 1-19 (peptide)
chain: ARTKQTARKSTGGKAPRKQ
modifications: A Rme2s T Kme1 Q T A Rme2s Kac S T G G K A P R K Q
B4: H3 1-19 (peptide)
chain: ARTKQTARKSTGGKAPRKQ
modifications: A Rme2s T Kme3 Q T A R K S T G G K A P R K Q
B5: H3 16-35 (peptide)
chain: PRKQLATKAA[Arg(Me2s)][Lys(Me)][pS]APATGG
B6: H3 1-19 (peptide)
chain: ARTKQTA[Arg(Me2a)][Lys(Me2)][pS][pT]GGKAPRKQ
B7: H3 1-19 (peptide)
chain: ARTK(Ac)QTARKSTGGKAPRKQ
B8: H3 16-35 (peptide)
chain: PRKQLATKAARKSAPATGG
modifications: histone peptides carry modifications given inline in the sequence and in columns 4-7 (Kac, Kme1/2/3, Rme2a/s, Cit, pS/pT); N-terminus free or acetylated
B9: H3 1-19 (peptide)
chain: ARTKQTARKSTGGKAPRKQ
modifications: A Rme2s T Kme2 Q T A Rme2s Kme1 S T G G K A P R K Q
B10: H3 1-19 (peptide)
chain: AR[pT][Lys(Me3)]QTARKSTGGKAPRKQ
B11: H3 1-19 (peptide)
chain: ARTKQTARKSTGGKAPRKQ
modifications: A Rme2s T Kme1 Q T A Rme2s K S T G G K A P R K Q
B12: H3 1-19 (peptide)
chain: ARTKQTARKSTGGKAPRKQ
modifications: A Rme2a T Kac Q T A Rme2a Kme3 S T G G K A P R K Q
B13: H3 1-19 (peptide)
chain: ARTKQTARKSTGGKAPRKQ
modifications: not fully specified
B14: H3 1-19 (peptide)
chain: ARTKQTA[Arg(Me2a)][Lys(Me)][pS][pT]GGKAPRKQ
B15: H2a 1-19 (peptide)
chain: [pS]GRGK(Ac)QGGKARAKAKSRSS
B16: H2a 1-19 (peptide)
chain: SGRGK(Ac)QGGK(Ac)ARAK(Ac)AKSRSS
B17: H3 1-19 (peptide)
chain: ARTKQTARKSTGGKAPRKQ
modifications: A R T K Q T A Rme2a Kme2 pS T G G K A P R K Q
B18: H3 1-19 (peptide)
chain: ARTKQTARKSTGGKAPRKQ
modifications: A Rme2s T Kme3 Q T A R Kme3 S T G G K A P R K Q
B19: H3 26-45 (peptide)
chain: RKSAPATGGVKKPHRYRPG
modifications: R K S A P A T G G V Kme3 K P H R Y R P G
B20: H3 1-19 (peptide)
chain: ARTKQTARKSTGGKAPRKQ
modifications: A R T K Q T A R Kme1 S pT G G K A P R K Q
B21: H3 1-19 (peptide)
chain: ARTKQTARKSTGGKAPRKQ
modifications: A Rme2a T Kme2 Q T A Rme2s Kac S T G G K A P R K Q
B22: H3 1-19 (peptide)
chain: ARTKQTARKSTGGKAPRKQ
modifications: A Rme2a T Kme2 Q T A Rme2a K S T G G K A P R K Q
B23: H3 1-19 (peptide)
chain: ARTKQTARKSTGGKAPRKQ
modifications: A Rme2s T Kme2 Q T A R K S T G G K A P R K Q
B24: H3 1-19 (peptide)
chain: ARTKQTARKSTGGKAPRKQ
modifications: A Rme2a T Kme2 Q T A Rme2a Kac S T G G K A P R K Q
B25: H3 16-35 (peptide)
chain: PRKQLATKAA[Arg(Me2s)][Lys(Me3)][pS]APATGG
B26: H4 1-19 (peptide)
chain: SGRGKGGKGLGKGGAKRHR
modifications: S G Rme2a G Kac G G Kac G L G K G G A K R H R
B27: H3 1-19 (peptide)
chain: ARTKQTARKSTGGKAPRKQ
modifications: A Rme2s T Kac Q T A Rme2s Kme2 S T G G K A P R K Q
B28: H2B 1-19 (peptide)
chain: PDPAK(Ac)SAPAPKK(Ac)G[pS]K(Ac)KAVT
B29: H3 1-19 (peptide)
chain: ARTKQTARKSTGGKAPRKQ
modifications: A Rme2a T Kac Q T A Rme2a K S T G G K A P R K Q
B30: H3 1-19 (peptide)
chain: A[Arg(Me2s)]TK(Ac)QTARK(Me)STGGKAPRKQ
B31: H3 1-19 (peptide)
chain: ART[Lys(Me3)]QTA[Arg(Me2a)][Lys(Me)]STGGKAPRKQ
B32: H3 1-19 (peptide)
chain: ARTKQTA[Arg(Me2a)]K(Me)[pS]TGGKAPRKQ
B33: H3 16-35 (peptide)
chain: PRKQLATKAA[Arg(Me2a)][Lys(Me)]SAPATGG
B34: H4 1-19 (peptide)
chain: SGRGKGGKGLGKGGAKRHR
modifications: S G R G Kac G G K G L G K G G A K R H R

Non-standard residues stand in square brackets, D forms with d. No end group written: not given here. Arg(Me2a) = CN(C)C(=N)NCCC[C@H](N)C(=O)O; Lys(Me3) = C[N+](C)(C)CCCC[C@H](N)C(=O)O; Arg(Me2s) = CN=C(NC)NCCC[C@H](N)C(=O)O; pT = C[C@@H](OP(=O)(O)O)[C@H](N)C(=O)O; Lys(Me2) = CN(C)CCCC[C@H](N)C(=O)O; pS = N[C@@H](COP(=O)(O)O)C(=O)O; Lys(Me) = CNCCCC[C@H](N)C(=O)O

The first experiment concerns the target T1, Bdf1 bromodomain 1 (GST-tagged, WT). The experiment in a line: histone peptide array probed with recombinant GST-bromodomain, signal normalised to myc peptide control.
As for B1, the binding score is 0.00251.

Consider B2, for which the binding score is 0.0251.

Take B3: the binding score came out at 0.0109.

As for B4, the binding score was found to be 0.

Regarding B5, the binding score stood at 0.

As to B6, the binding score came to 0.00448.

In the case of B7, the binding score worked out at 0.000538.

In the case of B8, the binding score turned out to be 0.

Turning to B9, the binding score was 0.00323.

Take B10: the binding score was determined as 0.00305.

Turning to B11, the binding score was 0.

As to B12, the binding score was determined as 0.0133.

In the case of B13, the binding score stood at 0.00592.

B14: the binding score worked out at 0.

For B15, the binding score turned out to be 0.00197.

As to B16, the binding score stood at 0.144.

As to B17, the binding score was determined as 0.00215.

Consider B18, for which the binding score is 0.0117.

For B19, the binding score worked out at 0.

Take B20: the binding score was 0.0122.

B21: the binding score is 0.0213.

For B22, the binding score was found to be 0.00323.

As for B23, the binding score was found to be 0.

With B24, the binding score was 0.0126.

With B25, the binding score came to 0.00753.

In the case of B26, the binding score was 0.0418.

As to B27, the binding score worked out at 0.

Regarding B28, the binding score was found to be 0.

B29: the binding score was 0.00932.

B30: the binding score worked out at 0.00341.

Take B31: the binding score amounted to 0.

As for B32, the binding score was found to be 0.

As to B33, the binding score was determined as 0.00341.

Regarding B34, the binding score is 0.00681.

The target in a further experiment is T2, Bdf1 bromodomain 2 (GST-tagged, WT). The description is as above.
For the molecule B1, the binding score was determined as 0.

For the molecule B2, the binding score came out at 0.0902.

Regarding B3, the binding score was 0.0269.

As to B4, the binding score turned out to be 0.

Regarding B5, the binding score worked out at 0.

Take B6: the binding score amounted to 0.

In the case of B7, the binding score came out at 0.00679.

For B8, the binding score worked out at 0.

For B9, the binding score came to 0.00423.

For B10, the binding score amounted to 0.006.

Turning to B11, the binding score came out at 0.0062.

Take B12: the binding score was determined as 0.00659.

For the molecule B13, the binding score turned out to be 0.00718.

Take B14: the binding score stood at 0.

B15: the binding score worked out at 0.0135.

Turning to B16, the binding score was 0.394.

For B17, the binding score was found to be 0.0062.

As for B18, the binding score was found to be 0.

For the molecule B19, the binding score was 0.

On to B20, for which the binding score amounted to 0.00344.

As to B21, the binding score was found to be 0.0274.

Regarding B22, the binding score came out at 0.00698.

Turning to B23, the binding score is 0.

Turning to B24, the binding score is 0.00423.

B25: the binding score amounted to 0.

Regarding B26, the binding score amounted to 0.137.

As for B27, the binding score came to 0.

In the case of B28, the binding score stood at 0.181.

As for B29, the binding score is 0.00718.

Take B30: the binding score turned out to be 0.00305.

In the case of B31, the binding score turned out to be 0.00148.

Turning to B32, the binding score was 0.00521.

For the molecule B33, the binding score stood at 0.

On to B34, for which the binding score came out at 0.0404.
